Biological target: the molecule itself
Assay: native gel or EMSA

Protein | binding result
Q115R Sin (enzyme, Staphylococcus aureus (plasmid pI9789)) MIIGYARVSSLDQNLERQLENLKTFGAEKIFTEKQSGKSIENRPILQKALNFVRMGDRFIVESIDRLGRNYNEVIHTVNYLKDKEVQLMITSLPMMNEVIGNPLLDKFMKDLIIRILAMVSEQERNESKRRQAQGIQVAKEKGVYKGRPLLYSPNAKDPQKRVIYHRVVEMLEEGQAISKIAKEVNITRQTVYRIKHDNGLS | binds
T77I/I100T/Q115R Sin (enzyme, Staphylococcus aureus (plasmid pI9789)) MIIGYARVSSLDQNLERQLENLKTFGAEKIFTEKQSGKSIENRPILQKALNFVRMGDRFIVESIDRLGRNYNEVIHIVNYLKDKEVQLMITSLPMMNEVTGNPLLDKFMKDLIIRILAMVSEQERNESKRRQAQGIQVAKEKGVYKGRPLLYSPNAKDPQKRVIYHRVVEMLEEGQAISKIAKEVNITRQTVYRIKHDNGLS | binds

— article PMC2764113 (Molecular Microbiology, 2009)
